According to publication PMC11879457 (Nucleic Acids Research, 2025):
Residue numbers refer to the chain shown, from its start.

T1: YdaT (Rac prophage) (Escherichia coli K-12 MG1655 (Rac …, UniProt P76064 1-140))
T1 sequence: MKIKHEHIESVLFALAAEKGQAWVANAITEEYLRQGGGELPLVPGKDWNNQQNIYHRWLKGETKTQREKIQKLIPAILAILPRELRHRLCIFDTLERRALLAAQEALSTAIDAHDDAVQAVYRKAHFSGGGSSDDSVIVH

T2: YdaTmut (H56A R57A) (Escherichia coli K-12 MG1655 (Rac …, UniProt P76064 1-140, H56A;R57A))
T2 sequence: T1 sequence with H56A, R57A

B1: N-terminally 6x His-tagged YdaT, wild type (Rac prophage transcription factor) (natural protein, E. coli K-12 (Rac prophage), UniProt P76064 1-140, looked up)
chain: T1 sequence
B2: IGR footprint substrate (165 bp) (dsDNA)
DNA 1: GCGCATTACATTAGGCAATCCCTACCCTTACTGCATTAGGCACAGCCTATTGACAATTGCGTTAGGCGTCGCCTAATATTTCTGTGTGTTTTTGGAGTTCATTCGATGAAAAAAGAGAACTATTCATTCAAGCAAGCTTGTGCTGTTGTCGGTGGGCAATCAGCA
DNA 2: TGCTGATTGCCCACCGACAACAGCACAAGCTTGCTTGAATGAATAGTTCTCTTTTTTCATCGAATGAACTCCAAAAACACACAGAAATATTAGGCGACGCCTAACGCAATTGTCAATAGGCTGTGCCTAATGCAGTAAGGGTAGGGATTGCCTAATGTAATGCGC

Columns and labels:
[1] = molecular target: the molecule itself; assay: SDS-PAGE
[2] = molecular target: the molecule itself; assay: SEC
[3] = molecular target: T1, YdaT (Rac prophage); assay: DNase I footprinting
[4] = molecular target: T2, YdaTmut (H56A R57A); assay: DNase I footprinting

Binder | stoichiometry N [1] | stoichiometry N [2] | binding result [3] | binding result [4]
B1 | 2 | 4 |  | 
B2 |  |  | binds | no binding
